The record followed here is patent US20110274696A1 (Amgen, published 2011).

Residue numbers refer to the chain shown, from its start. Numbers in names are those of the source. Where “and” joins values, the source holds several entries; their conditions need not be identical. Identical values can stand only once. Where no end group is shown, it is not given here.

The target of assay [1] is T1, human CCR2 (human, UniProt P41597-2 1-360).
T1 sequence: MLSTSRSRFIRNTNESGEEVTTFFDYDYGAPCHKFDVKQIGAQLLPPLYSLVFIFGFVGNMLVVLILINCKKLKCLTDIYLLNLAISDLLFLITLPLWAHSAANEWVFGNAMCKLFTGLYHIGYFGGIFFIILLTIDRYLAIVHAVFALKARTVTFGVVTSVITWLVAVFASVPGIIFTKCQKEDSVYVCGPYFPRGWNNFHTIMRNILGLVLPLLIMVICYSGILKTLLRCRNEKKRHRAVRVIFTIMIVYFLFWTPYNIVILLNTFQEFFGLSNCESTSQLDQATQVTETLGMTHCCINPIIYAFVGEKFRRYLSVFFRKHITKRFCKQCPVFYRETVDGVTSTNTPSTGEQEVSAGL
In words: cell-based or functional assay.

Assay [2] deals with T1, human CCR2. Description: cell-based or functional assay. The source holds these as a separate data set.
Assay [3] has as its target T2, biotinylated CCR2 loop 2 peptide (human, biotinylated (position not given)).
T2 construct: Synthetic peptide (AnaSpec) captured on a NeutrAvidin plate; also called second extracellular loop peptide
T2 peptide: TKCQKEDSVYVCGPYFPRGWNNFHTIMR
Description: peptide ELISA, biotinylated peptide on NeutrAvidin plate. The method, then:
(§1) In addition, epitope binding to the first and/or second loop of CCR2 was also assessed using a peptide ELISA. A Reacti-Bind NEUTRAVIDIN™ Coated, High Binding Capacity ELISA plate (Pierce; Rockford, Ill.) was washed 3× with PBS/0.05% Tween20 and then coated with 100 ul/well of 6 ug/ml biotinylated CCR2 loop 2 (SEQ ID NO:129) or loop 3 (SEQ ID NO:130) peptide (AnaSpec; San Jose, Calif.). The plate was incubated for 1 hour and then washed 3×. The CCR2 antagonist antibody 4.40.3 A68G S230P or other primary antibody, diluted in PBS/0.1% BSA/0.05% Tween20, was then added to the plate in serial dilution and incubated for 1 hour, as were other controls. The plate was washed 3× and 100 ul/well HRP-Mouse anti-Human IgG4 secondary antibody (Zymed; So. San Francisco, Calif.) was added to all the wells at 1:5000 dilution and incubated for 1 hour. The plate was washed 3× and TMB substrate was added to all the wells and incubated for ˜30 minutes. The color reaction was stopped with 2M H₂SO₄ and the absorbance reading was measured on a plate reader at […] (FIG. 8).
A general note: An ELISA detects its analyte on a solid surface through an enzyme-linked reagent.

Assay [4] deals with T3, biotinylated CCR2 loop 3 peptide (human, also: biotinylated, position not given here).
T3 construct: Synthetic peptide (AnaSpec) captured on a NeutrAvidin plate; also called third loop
T3 peptide: QEFFGLSNCESTSQLDQ
Description: peptide ELISA. The method, then: as §1

Assay [5] deals with T4, RMMR chimeric receptor (N-terminus and 3rd loop of CCR1; 1st and 2nd loops of CCR2), FLAG-tagged.
T4 construct: also called 1st and 2nd loops of CCR2 (RMMR)
In words: FACS saturation binding on RMMR chimera transfected 300-19 cells. On the procedure: (§2) Fifteen minutes later, a secondary detection antibody, R-Phycoerythrin conjugated Affini-pure F(ab′) fragment Donkey anti-human IgG H+L (Jackson 709-116-149), was added. Tubes were gently shaken for 3 hours at room temperature. After 2 washes in buffer, cells were resuspended in 500 ul of buffer and assessed on a FACS CALIBUR™. A total of 10,000 events per tube were assessed. The mean channel fluorescent intensity was assessed for each concentration of antibody as an indicator for the magnitude of staining.
(§3) Binding of antibodies to the CCR2/CCR1 chimeric receptors was assessed using FACS analysis. All receptors were tagged at the N-terminus with FLAG and also stained with the anti-FLAG antibody M1 such that receptor expression could be confirmed. FIGS. 6A & B illustrate the FACS staining of FLAG on the N-terminus with M1 antibody (FIG. 6A) as compared to the staining of 4.40 (FIG. 6B). FIG. 6C illustrates a saturation binding curve of the 4.40 A68G S230P antibody on RMMR chimera transfected 300-19 cells.

The target of assay [6] is T1, human CCR2. Description: FACS saturation binding, 3 hour assay, 300-19 cells expressing human CCR2; full-length human CCR2 on transfected 300-19 cells, not the chimera; KD in ug/mL. The method, then:
as §2, with “Briefly, using a buffer of Dulbecco's Phosphate Buffered Saline containing 2% heat inactivated Fetal Bovine Serum, 0.002% Sodium Azide and 0.005 mg/ml Cytochalasin-B (Sigma 6762), 1 million cells in a volume of 100 ul were stained with the test antibody. Fifteen” for “Fifteen”

Assay [7] deals with T3, biotinylated CCR2 loop 3 peptide. In words: capture ELISA, biotinylated CCR2 loop 3 peptide on a NeutrAvidin plate, HRP anti-human IgG4, absorbance at 450 nm. The method, then: as §1
Assay [8] addresses cynomolgus monkey CCR2 (cynomolgus monkey). In words: cell-based or functional assay.
The target of assay [9] is T1, human CCR2. Description: cell-based or functional assay. The source holds these as a separate data set.
The target of assay [10] is T2, biotinylated CCR2 loop 2 peptide. Description: capture ELISA, biotinylated CCR2 loop 2 peptide on a NeutrAvidin plate, HRP anti-human IgG4, absorbance at 450 nm. On the procedure:
as §1

Assay [11] addresses T4, RMMR chimeric receptor (N-terminus and …). In words: FACS saturation binding on 300-19 cells expressing the chimera with the first and second extracellular loops of CCR2 (FIG. 6C). On the procedure: as §2, §3
The target of assay [12] is T5, CCR5 (human, UniProt P51681 1-352).
T5 construct: also called recombinant CCR5; human CCR5
T5 sequence (P51681 whole entry): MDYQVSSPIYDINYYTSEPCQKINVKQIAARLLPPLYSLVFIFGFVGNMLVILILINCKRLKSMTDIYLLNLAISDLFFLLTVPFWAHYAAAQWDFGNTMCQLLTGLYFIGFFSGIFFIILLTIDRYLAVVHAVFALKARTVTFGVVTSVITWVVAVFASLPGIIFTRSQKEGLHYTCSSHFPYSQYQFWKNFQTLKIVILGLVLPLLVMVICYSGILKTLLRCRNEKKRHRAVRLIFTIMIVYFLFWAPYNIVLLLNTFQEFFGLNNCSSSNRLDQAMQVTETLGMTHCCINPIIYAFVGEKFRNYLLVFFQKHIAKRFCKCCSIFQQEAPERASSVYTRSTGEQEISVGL
Description: FACS, AF-488 conjugated antibody on 300-19 cells expressing recombinant CCR5. On the procedure:
The selectivity of the 4.40 A68G S230P antibody for human CCR2 was confirmed by the absence of binding to a closely related chemokine receptor, CCR5, as shown in FIG. 9 and by the lack of inhibition of chemotaxis induced by the CCR5/CCR1 ligand MIP-1a (FIG. 3). […] For these studies, 300.19 cells engineered to express CCR5 were incubated with either the CCR2 selective antibody, 4.40 A68G S230P, or the CCR5-selective antibody for 30 minutes. Cells were then washed in FACS buffer (0.02% sodium azide, 2% heat inactivated fetal bovine serum in PBS) and analyzed for cell surface expression using a flow cytometer using standard methods.

Assay [13] addresses T1, human CCR2. In words: FACS saturation binding (3 hour assay) on CCR2 transfected 300-19 cells, PE anti-human IgG detection. The method, then:
as §2, with “Briefly, using a buffer of Dulbecco's Phosphate Buffered Saline containing 2% heat inactivated Fetal Bovine Serum, 0.002% Sodium Azide and 0.005 mg/ml Cytochalasin-B (Sigma 6762), 1 million cells in a volume of 100 ul were stained with the test antibody. Fifteen” for “Fifteen”

B1: anti-CCR2 monoclonal antibody 4.40 (antibody, V domains shown)
VH: QVQLVESGGGVVQPGRSLRLSCAASGLTFSSYGMHWVRQAPGKGLEWVAVILYDGKNKYYADSVKGRFTISRDNSKNTLYLQMNSLRAEDTAVYYCARDQAYWTYFDAFDIWGQGTMVTVSS
VL: EIVLTQSPDFQSVTPKEKVTITCRASQSIGSSLHWYQQKPDQSPKLLIKYASQSFSGVPSRFSGSGSATDFTLTINSLEAEDAATYYCHQSSSLPLTFGGGTKVEIKR
notes: Hybridoma clone from IgG4 XenoMouse mice; Variable domains were also cloned into IgG1, IgG2 and IgG4 formats; also called 4.40.2; 4.40.3
In the case of B1, in assay [1], the “Chemotaxis IC50” value is 0.13 µg/mL. Moreover, the “Inhibition of MCP-1-induced THP-1 Chemotaxis, IC50” value in [2] was 0.137 µg/mL. The binding result in [3] is given as “binds”; in assay [4], “no binding”.

B2: anti-CCR2 monoclonal antibody 4.9 (antibody, human IgG4, kappa, V domains shown)
VH: B1 VH with L27F, I51Q, L52T, K56R, N77K, S85R, T104K
VL: DIQMTQSPSSLSTSVGDRVTITCRASQSISSYLNWYQQKPGKAPKLLIYAASSLQSGVPSRFSGSGSGTDFTLTISSLQPEDFATYYCQQSYNSPCSFGQGTKLEIKR
notes: Hybridoma clone from IgG4 XenoMouse mice; also called 4.9.2; 4.9.3
On to B2, for which the “Chemotaxis IC50” value in assay [1] is 0.198 µg/mL. For the same molecule, the “Inhibition of MCP-1-induced THP-1 Chemotaxis, IC50” value in assay [2] was 0.198 µg/mL. The binding result is listed as “binds” in assay [3] and “no binding” in assay [4].

B3: anti-CCR2 antibody 4.40 A68G S230P (antibody, human IgG4 S228P, kappa, V domains shown)
VH: B1 VH
VL: B1 VL with A68G
notes: Recombinant human IgG4 with the hinge mutation S230P (heavy chain) and the germline reversion A68G (light chain) of 4.40; also called 4.40.3 A68G S230P; 4.40.2 A68G S230P
What is called EC50 (read off the curve) is the concentration giving half of the maximal effect. What is called Kd is the free concentration of one partner at which half of the binding sites on the other are occupied at equilibrium, for simple one-to-one binding. B3: the entries for the “EC50 (read off the curve)” value in assay [5] and in assay [13] were roughly 0.05 µg/mL and roughly 0.08 µg/mL, respectively. Moreover, the equilibrium dissociation constant (Kd) was 0.0226 µg/mL in assay [5]; 0.085 µg/mL in assay [6]; 0.023 µg/mL and 0.16 nM in [11]; 0.0849 µg/mL in [13]. Further, the binding result in assay [7] is “no binding (tested: about 6 ug/ml)”; in assay [10], “binds”; in assay [12] it was “no binding”. For the same molecule, in assay [8], the “inhibition of MCP-1 induced whole blood actin polymerization in the cynomolgus monkey, IC50” value is 0.49 µg/mL. Besides, the “inhibition of MCP-1 induced actin polymerization in monocytes, human whole blood, IC50” value in assay [9] turned out to be 0.168 µg/mL. The “inhibition of MCP-1 induced pERK phosphorylation in human whole blood, IC50” value in [9] is 0.44 µg/mL and 2.9 nM. Moreover, the “inhibition of chemotaxis of THP-1 monocytes in response to MCP-1, IC50” value in assay [9] was determined as 0.148 µg/mL. For the same molecule, the “inhibition of collagen IAI mRNA synthesis in LI90 cells induced by MCP-1, IC50” value in assay [9] was 0.89 µg/mL and 6.2 nM.

B4: anti-CCR2 monoclonal antibody 4.39.3 (antibody, human IgG4, kappa, V domains shown)
VH: QVQLVQSGAEVKKPGASVKVSCKASGYTFTSYYIHWVRQAPGQGLEWMGMINPSGGPTSYAQKFQGRVTMTRDTSTSTVYMDLSSLRSEDTAVFYCARERWYKWNFDAFDIWGQGTMVTVSS
VL: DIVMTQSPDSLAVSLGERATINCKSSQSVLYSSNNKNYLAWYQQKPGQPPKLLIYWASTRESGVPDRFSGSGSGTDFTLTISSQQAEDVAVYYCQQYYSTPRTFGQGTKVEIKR
On to B4, for which the “Chemotaxis IC50” value in [1] came out at 0.139 µg/mL. Besides, the “Inhibition of MCP-1-induced THP-1 Chemotaxis, IC50” value in assay [2] was found to be 0.139 µg/mL.
